Substrate in this data set: CC(=O)SCCNC(=O)CCNC(=O)[C@H](O)C(C)(C)COP(=O)(O)OP(=O)(O)OC[C@H]1O[C@@H](n2cnc3c(N)ncnc32)[C@H](O)[C@@H]1OP(=O)(O)O
The data set is described as follows: purified protein, by the assay type. The note with it: other: Lineweaver-Burk analysis, partially purified recombinant TAX6.

What is called Km is the concentration of substrate that gives half-maximal velocity.

B1: 10-deacetylbaccatin III-10-O-acetyl transferase (TAX6) (Taxus cuspidata) (protein)
chain: MAGSTEFVVRSLERVMVAPSQPSPKAFLQLSTLDNLPGVRENIFNTLLVYNASDRVSVDPAKVIRQALSKVLVYYSPFAGRLRKKENGDLEVECTGEGALFVEAMADTDLSVLGDLDDYSPSLEQLLFCLPPDTDIEDIHPLVVQVTRFTCGGFVVGVSFCHGICDGLGAGQFLIAMGEMARGEIKPSSEPIWKRELLKPEDPLYRFQYYHFQLICPPSTFGKIVQGSLVITSETINCIKQCLREESKEFCSAFEVVSALAWIARTRALQIPHSENVKLIFAMDMRKLFNPPLSKGYYGNFVGTVCAMDNVKDLLSGSLLRVVRIIKKAKVSLNEHFTSTIVTPRSGSDESINYENIVGFGDRRRLGFDEVDFGWGHADNVSLVQHGLKDVSVVQSYFLFIRPPKNNPDGIKILSFMPPSIVKSFKFEMETMTNKYVTKP
In the case of B1, the Km is 8 µM.

Source of the values: patent publication US7153676B1, “Transacylases of the paclitaxel biosynthetic pathway” (priority 1999, dated 2006).
